From PMC2795026
Read-outs that look alike come from different tables or passages of the source.

T1: MBP-Brh2NT-His (Ustilago maydis, UniProt Q8NJ74 1-551)
T1 sequence: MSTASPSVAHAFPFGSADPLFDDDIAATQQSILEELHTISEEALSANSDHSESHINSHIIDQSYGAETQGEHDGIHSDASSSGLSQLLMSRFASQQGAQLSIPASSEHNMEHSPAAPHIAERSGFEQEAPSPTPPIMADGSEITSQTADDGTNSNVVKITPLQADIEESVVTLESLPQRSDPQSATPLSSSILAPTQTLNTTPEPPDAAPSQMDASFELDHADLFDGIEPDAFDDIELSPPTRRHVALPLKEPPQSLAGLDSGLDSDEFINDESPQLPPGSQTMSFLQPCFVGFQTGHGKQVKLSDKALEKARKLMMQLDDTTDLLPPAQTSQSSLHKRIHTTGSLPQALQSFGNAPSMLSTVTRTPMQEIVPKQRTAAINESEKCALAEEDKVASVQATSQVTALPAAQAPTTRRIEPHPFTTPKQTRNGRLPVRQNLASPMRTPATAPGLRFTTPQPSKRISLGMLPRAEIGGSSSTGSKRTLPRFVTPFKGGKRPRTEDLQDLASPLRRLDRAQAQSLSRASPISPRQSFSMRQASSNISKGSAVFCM

T2: MBP-Brh2 (Ustilago maydis, UniProt Q8NJ74 1-1075)
T2 sequence: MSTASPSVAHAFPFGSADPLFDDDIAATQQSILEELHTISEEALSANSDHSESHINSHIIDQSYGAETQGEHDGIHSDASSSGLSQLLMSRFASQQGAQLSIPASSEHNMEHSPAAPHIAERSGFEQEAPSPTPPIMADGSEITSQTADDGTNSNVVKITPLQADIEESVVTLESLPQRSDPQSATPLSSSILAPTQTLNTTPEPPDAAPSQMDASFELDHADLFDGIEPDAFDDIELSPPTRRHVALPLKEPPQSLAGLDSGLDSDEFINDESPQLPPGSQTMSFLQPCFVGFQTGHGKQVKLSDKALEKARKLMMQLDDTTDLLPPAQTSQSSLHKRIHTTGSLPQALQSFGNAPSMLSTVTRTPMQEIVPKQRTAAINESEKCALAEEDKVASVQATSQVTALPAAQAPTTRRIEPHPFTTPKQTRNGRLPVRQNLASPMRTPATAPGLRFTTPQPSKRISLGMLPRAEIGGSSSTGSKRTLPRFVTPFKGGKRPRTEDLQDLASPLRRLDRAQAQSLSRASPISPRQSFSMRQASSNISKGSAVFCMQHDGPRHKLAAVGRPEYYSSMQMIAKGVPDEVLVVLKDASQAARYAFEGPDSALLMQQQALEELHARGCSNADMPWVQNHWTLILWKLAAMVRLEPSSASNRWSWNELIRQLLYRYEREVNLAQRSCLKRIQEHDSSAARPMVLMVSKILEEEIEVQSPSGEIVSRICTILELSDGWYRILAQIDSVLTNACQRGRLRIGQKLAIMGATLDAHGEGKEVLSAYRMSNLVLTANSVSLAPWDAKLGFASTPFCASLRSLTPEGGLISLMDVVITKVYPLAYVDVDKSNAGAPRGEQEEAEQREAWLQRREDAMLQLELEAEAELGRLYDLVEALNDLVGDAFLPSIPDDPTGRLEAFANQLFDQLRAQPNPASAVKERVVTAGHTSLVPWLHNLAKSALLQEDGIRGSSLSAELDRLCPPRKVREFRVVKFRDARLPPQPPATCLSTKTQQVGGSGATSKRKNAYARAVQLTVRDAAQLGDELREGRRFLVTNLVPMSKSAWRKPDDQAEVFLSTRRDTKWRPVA

T3: Brh2 apoprotein (stripped of Dss1) (Ustilago maydis, UniProt Q8NJ74 1-1075)
T3 sequence: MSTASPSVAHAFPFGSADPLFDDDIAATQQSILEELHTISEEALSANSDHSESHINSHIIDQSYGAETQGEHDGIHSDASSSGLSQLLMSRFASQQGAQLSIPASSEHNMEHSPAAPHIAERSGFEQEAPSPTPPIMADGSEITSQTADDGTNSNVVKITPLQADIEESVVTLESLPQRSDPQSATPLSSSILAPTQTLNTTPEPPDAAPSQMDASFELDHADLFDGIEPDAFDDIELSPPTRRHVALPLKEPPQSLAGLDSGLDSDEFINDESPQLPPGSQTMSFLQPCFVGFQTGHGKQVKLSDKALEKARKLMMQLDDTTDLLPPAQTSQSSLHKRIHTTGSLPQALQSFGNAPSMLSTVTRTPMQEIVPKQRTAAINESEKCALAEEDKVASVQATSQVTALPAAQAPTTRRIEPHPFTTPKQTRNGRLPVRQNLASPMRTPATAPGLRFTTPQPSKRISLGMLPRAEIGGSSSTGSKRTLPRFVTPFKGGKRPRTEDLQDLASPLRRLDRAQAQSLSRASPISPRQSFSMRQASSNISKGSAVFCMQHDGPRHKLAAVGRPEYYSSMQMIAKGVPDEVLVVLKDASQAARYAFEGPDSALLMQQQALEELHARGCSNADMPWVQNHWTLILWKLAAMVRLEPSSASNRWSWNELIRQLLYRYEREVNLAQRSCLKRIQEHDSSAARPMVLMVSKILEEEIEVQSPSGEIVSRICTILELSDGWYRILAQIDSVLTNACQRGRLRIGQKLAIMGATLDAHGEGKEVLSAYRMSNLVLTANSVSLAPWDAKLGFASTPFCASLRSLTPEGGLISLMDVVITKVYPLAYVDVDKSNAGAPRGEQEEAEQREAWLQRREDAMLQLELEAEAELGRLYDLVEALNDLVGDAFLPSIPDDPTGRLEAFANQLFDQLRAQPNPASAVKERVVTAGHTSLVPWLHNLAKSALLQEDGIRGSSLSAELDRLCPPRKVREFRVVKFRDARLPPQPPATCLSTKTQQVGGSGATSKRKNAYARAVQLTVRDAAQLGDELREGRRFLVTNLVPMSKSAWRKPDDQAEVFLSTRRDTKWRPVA

B1: ss60mer (ssDNA)
DNA: GCTGCGCAAGGATAGGTCGAATTTTCTCATTTTCCGCCAGCAGTCCACTTCGATTTAATT
B2: 3'-biotin ss60mer (ssDNA)
DNA: GCTGCGCAAGGATAGGTCGAATTTTCTCATTTTCCGCCAGCAGTCCACTTCGATTTAATT

Tests used:
MBP-Brh2NT-His = biological target: T1, MBP-Brh2NT-His; test: EMSA
MBP-Brh2 [1] = biological target: T2, MBP-Brh2; test: pull-down
[2] = biological target: T3, Brh2 apoprotein (stripped of Dss1); test: EMSA
MBP-Brh2 [3] = biological target: T2, MBP-Brh2; test: pull-down; remark: listed apart in the source

| Binder | binding result (MBP-Brh2NT-His) | binding result (MBP-Brh2 [1]) | binding result [2] | binding result (MBP-Brh2 [3]) |
| --- | --- | --- | --- | --- |
| B1 | binds | binds | binds | – |
| B2 | – | – | – | binds |
